B1: cTyr-CNK (Candidatus Nitrosopumilus koreensis AR1) (protein)
chain: MTRKNAKDFLPDERQRYCNALLTLKQTIEPGHTLSKYDEFVAIHYGVTRRLRNGIPIGDGAHFVPGFLAWHREYLNRFEKAIRTVDSTLSLPYWNWSSGDDTDTTEIFTDDFMGPPGDPNNGNKITSGYFVENNWEVHSELDGGNNGSVLVRDSTLLSSSKLSQVSGYGELAMDAVNGDNDFDSFLPGLEGPHGSIHMWIGGHMTSMTSPNDPIFFLHHANIDRLWSKWQELHPGPENYNPNNDGSYGSRLNDRMWPWDGSEDTTTTRTGTATGISLQGLLPTFSDYDIVTPR
notes: core tyrosinase domain, residues 1-293, C-terminal 294-415 removed; His6 tag (pET23b+), E. coli BL21(DE3), Ni-NTA purified
B2: mTyr-CNK (Candidatus Nitrosopumilus koreensis AR1) (protein)
chain: MTRKNAKDFLPDERQRYCNALLTLKQTIEPGHTLSKYDEFVAIHYGVTRRLRNGIPIGDGAHFVPGFLAWHREYLNRFEKAIRTVDSTLSLPYWNWSSGDDTDTTEIFTDDFMGPPGDPNNGNKITSGYFVENNWEVHSELDGGNNGSVLVRDSTLLSSSKLSQVSGYGELAMDAVNGDNDFDSFLPGLEGPHGSIHMWIGGHMTSMTSPNDPIFFLHHANIDRLWSKWQELHPGPENYNPNNDGSYGSRLNDRMWPWDGSEDTTTTRTGTATGISLQGLLPTFSDYDIVTPRHVLDNNLTIP
notes: mature form, residues 1-303, C-terminal extension 304-415 removed; His6 tag (pET23b+), codon-optimized gene, E. coli BL21(DE3), Ni-NTA purified

Legend:
purified protein [1] = substrate: N[C@@H](Cc1ccc(O)c(O)c1)C(=O)O; experiment: purified protein; assay type: biochemical, Candidatus Nitrosopumilus koreensis; settings: diphenolase
purified protein [2] = substrate: N[C@@H](Cc1ccc(O)cc1)C(=O)O; experiment: purified protein; assay type: biochemical, Candidatus Nitrosopumilus koreensis; settings: monophenolase
[3] = 50 mM Tris pH 6.0, 0.01 mM CuSO4, 20 °C, substrate range 0.025–0.0625 mM

Protein	Km (purified protein [1]; pH 6, 20 °C)	kcat (purified protein [1]; pH 6, 20 °C)	Km (purified protein [2]; pH 6, 20 °C)	kcat (purified protein [2]; pH 6, 20 °C)	Km (purified protein [1]; [3])	kcat (purified protein [1]; [3])	kcat/Km (purified protein [1]; [3])	Km (purified protein [2]; [3])	kcat (purified protein [2]; [3])	kcat/Km (purified protein [2]; [3])
B1	560 ± 40 µM	2.05 ± 0.10 s⁻¹	1600 ± 650 µM	2.13 ± 0.79 s⁻¹	–	–	–	–	–	–
B2	–	–	–	–	490 ± 40 µM	0.87 ± 0.07 s⁻¹	1810 ± 260 M⁻¹ s⁻¹	2120 ± 140 µM	3.33 ± 0.18 s⁻¹	1570 ± 10 M⁻¹ s⁻¹

— article PMC5722948, “A tyrosinase, mTyr-CNK, that is functionally available as a monophenol monooxygenase” (Scientific Reports, 2017)
